From the DeepSol protein solubility set

Assay: soluble on expression in E. coli; label from the status in PepcDB or PDB records

Soluble on expression in E. coli, not soluble:
MGSDKIHHHHHHMTSAGTIEDAKGPAELRLALRQMLGEDIVLSETEEMLRFCRDWHGDVTTGTVAVIRPRSTQQVAAAVKACRELGLSIVPQGGNTGLVLGAIPDAPERQVVLSLSRMNRIRKIDPADFSAVVESGCILSELKDAIAKMGMFFPLALGAQGSCQIGGNVSTNAGGVNVLRYGMTRELVLGLEVVLPDGSILEGLSTLRKDNRGIDLKQLFIGAEGTLGIITAVSITLTPYPDHVATALLGLASLEDAIRLYRRARRDCCDLMSAFEFMPPLAFTLAQEAMPDLPIPISAEYPAYVLMEISGSGLVDVDDLMQRFLEGAMEEGLVLDGTIAASQTQARNLWLIREGMNEGQAKRGTHMRTDISVPLSQLASFVEEAEKAVSEALPGAVSVSYGHVGDGNVHLNVLPPAGSTPEERIQLIYKAKTVVNEVLDRYTGSISAEHGIGRLKRPDFDARLPATRRKLLTALKHAVDPEMIMNPGCQLRF
MGSDKIHHHHHHMTSSFTDYCKFFNRILSEVQETQEQAIIKGAHLVSEAVMNGGRFYVFGSGHSHMIAEEIYNRAGGLALVTAILPPELMLHERPNKSTYLERIEGLSKSYLKLHQVTNKDVIMIISNSGRNTVPVEMAIESRNIGAKVIAMTSMKHSQKVTSRHKSGKKLYEYADVVLDNGAPVGDAGFQIANSEIYSGATSDSIGCFLAQALIVETLHLLVQQGFEPPVFKSSNVDGADLYNDKIFNEYVKW
MGSDKIHHHHHHMTSSRSRYLSVMGRELHVTEWGDEAAPALVMWHGLARTGRDFDTLAAHFCDRYRVVCPDTLGRGLSGWSRVPRRDYTLAAYMKHALELLGLLGIDRVTWIGTSMGGALGMLLAAGPLAGRMDRLVMNDIGPTLNPVAVERIRNYLAQHPSFRTMTEFEAYLRQVYRPYGFQTDLEWRRMTETSARRRGDGRITPHYDPAVMRVFAETAGDYEAWGEYDLITCPTLVLRGAESDLLLPEVAQEMTRRGPKARLVTVAGCGHAPSLNVPEQIGVIEDFLA
MGSDKIHHHHHHMTTIFIEKATILDAEKLTEIMTRTFDEEEKRWLCGQGDVIDYNIQPPGYSSVEMMRYSIEELDCYKVIMDGKIIGGIIVTISGKSYGRIDRIFVEPVYQGKGIGSYVIKLIEEEYPSIRIWDLETSSRQLNNHHFYKKMGYETIFKSEDEYCYVKRITVESAEENLIKNKDMKNSQYENCNLANTEYYQVNLKNSSFVGSNMMNMKMSNCNVRQSNFRNINFRNSSYADLNLSGSKFNFVTLGGVQFKDTSLGEDKDPISFNRCDLEGSTISNSNLKNMDIENCDITGMKINGIPIEKLLALYNKVKS
MGSDKIHHHHHHMTTILQLSDLHIGPHNDEKDQKTYDLIHHMMTHYQPDITVLTGDQIWSEGVIDSGRVYKKLMEYLNRYDTQIATTFGNHDTEGHLKRSDLRAIEDQYSTNYVQKNHSLIVDDKEAYTIEVVNNDTVTHVLYVIDGGDYNPFGIGDYDFIRPEHVNWLRETHQAYQTQFQHNFQHNLLFTHIPLQEYREVENIGEYHGIFNEPIACSKINSGLFSQMLLNGDIEGMFCGHDHDNDFTINLYGIRLSFGRIGGYNTYGDLQRGARLIELQPDAIYKSKVLEFDDRF
MGSDKIHHHHHHMTTLDALRVFVEVVRAGSFTAAARRLSISKSLASKRVAALEDELSVNLLNRSTRSLRLTEAGQIYYEHGLRVIEELQSAEAQVQSVTSQPRGQLKVSAQVSFGFMYLAAPTTAFMRRYPDVSVEILLEDQRFEPIDDSVDLAIRMGPLPPSSLVSRPLCKVVYGLYAAPDYLARAGRPLHPRDIADYDTVFYGNYDLGAHWRFSLNGQPLDIEPNSRLVINNLLGVVEAAKSGFGLAYLPTFAARAAVEEGQLIPLLQPYWNEHGSMLVLFRSRKYLPDKTRAYLDFITDWFREHLAL
MGSDKIHHHHHHMTTTTKKTAERLIKKYPNRRLYDTETSTYITLTDVKQLVLDQEDFKVIDAKSNEDLTRAILLQIILEEESGGLPMFSSSMLSQIIRFYGHAMQGMMGTYLEKNIQAFIDIQAKLADQSKNLYEGKAMNPEVWSQFMNMQAPMMQGMMTSYIEQSKNMFVQMQEQMQNQAKSMFATFPFTPGGAVNVAGGGNAPASPQGNPQGNPEPEKK
